Measurements as given in patent US5668264.

Molecular target: PDGF AB (Homo sapiens) (UniProt P04085+P01127)
Assay: filter
Details: 2'-F on all C and U; random starting pool

PDGF AB (Homo sapiens), sequence (P01127 82-190, chain 2 of 2, other chains not shown): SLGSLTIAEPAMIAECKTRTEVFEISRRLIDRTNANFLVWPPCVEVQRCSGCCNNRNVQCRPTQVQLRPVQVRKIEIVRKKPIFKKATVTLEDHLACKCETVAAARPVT

GGGAGACAAGAAUAACGCUCAANNNNNNNNNNNNNNNNNNNNNNNNNNNNNNNNNNNNNNNNNNNNNNNNNNUUCGACAGGAGGCUCACAACAGGC [random 2'-F pyrimidine RNA pool (50N)]
Kd: 0.035 µM
